# Patent US20260151519A1 (AKTIS ONCOLOGY, published 2026)
# Bridges are numbered along the chain shown (N, C = ends). Primed or numbered codes have the meaning given here. The star is where a group is joined. DOTA = O=C(O)CN1CCN(CC(=O)O)CCN(CC(=O)*)CCN(CC(=O)O)CC1; PEG4″ = 4(ethylene glycol)
# T1: Human Nectin-4 expressed on cells (human, UniProt Q96NY8 32-510)
# T1 construct: Endogenous on HT-1376 cells; also called endogenous Nectin-4 on HT-1376 cells; cell surface Nectin-4
# T1 sequence: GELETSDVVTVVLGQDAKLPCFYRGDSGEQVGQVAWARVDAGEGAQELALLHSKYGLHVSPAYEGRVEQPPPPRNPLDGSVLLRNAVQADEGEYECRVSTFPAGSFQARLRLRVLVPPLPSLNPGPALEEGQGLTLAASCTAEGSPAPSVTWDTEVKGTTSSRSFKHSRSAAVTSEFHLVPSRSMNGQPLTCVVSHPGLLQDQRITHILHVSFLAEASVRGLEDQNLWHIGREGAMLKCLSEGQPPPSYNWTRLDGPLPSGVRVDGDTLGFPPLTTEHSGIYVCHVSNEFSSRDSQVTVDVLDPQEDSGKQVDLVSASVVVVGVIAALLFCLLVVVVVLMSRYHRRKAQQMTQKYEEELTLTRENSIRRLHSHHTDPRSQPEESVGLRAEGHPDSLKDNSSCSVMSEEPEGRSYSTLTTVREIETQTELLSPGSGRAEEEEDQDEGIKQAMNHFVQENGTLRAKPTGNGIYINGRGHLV
# T2: Human Nectin-4 (human, UniProt Q96NY8 32-349, limits assumed)
# T2 construct: Protein immobilised on the SPR chip; also called target protein
# T2 sequence: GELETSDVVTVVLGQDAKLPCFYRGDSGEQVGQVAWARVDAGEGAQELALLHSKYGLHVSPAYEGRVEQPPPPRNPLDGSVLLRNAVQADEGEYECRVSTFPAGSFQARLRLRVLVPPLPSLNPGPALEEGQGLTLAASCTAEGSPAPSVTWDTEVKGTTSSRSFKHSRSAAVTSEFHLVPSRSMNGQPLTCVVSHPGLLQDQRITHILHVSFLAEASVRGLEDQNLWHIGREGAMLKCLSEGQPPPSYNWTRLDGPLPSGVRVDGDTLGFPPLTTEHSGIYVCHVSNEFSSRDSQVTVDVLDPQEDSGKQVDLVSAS
# T3: Murine Nectin-4 (mouse, UniProt Q8R007 31-347, limits assumed)
# T3 construct: Protein immobilised on the SPR chip; also called mouse Nectin-4
# T3 sequence: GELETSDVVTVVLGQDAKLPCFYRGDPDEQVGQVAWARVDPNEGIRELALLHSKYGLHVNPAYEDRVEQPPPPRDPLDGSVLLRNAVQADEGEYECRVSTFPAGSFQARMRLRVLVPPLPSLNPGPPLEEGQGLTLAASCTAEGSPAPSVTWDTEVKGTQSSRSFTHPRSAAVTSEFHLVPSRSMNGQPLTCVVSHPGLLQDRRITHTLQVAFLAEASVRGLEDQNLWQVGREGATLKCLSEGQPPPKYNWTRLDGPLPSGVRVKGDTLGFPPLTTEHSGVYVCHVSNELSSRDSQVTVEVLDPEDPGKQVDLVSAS
# Experiments:
# [1] = target: T1, Human Nectin-4 expressed on cells; test: radioligand binding, 177Lu-labelled compound, HT-1376 cells
# Experimental: On the day of assay, culture medium was removed and PBS was added to cells. Association kinetics were measured at three concentrations of radioligand, and this was performed by the addition of lutetium-177 radioconjugates to cells at various time points from 1 to 60 minutes.
# Human Nectin-4 [2] = target: T2, Human Nectin-4; test: Table 2B (DELFIA or SPR)
# Human Nectin-4 [3] = target: T2, Human Nectin-4; test: SPR, Biacore, 1:1 model, 25 C
# Experimental: (§1) Peptide binding affinity to the target protein was measured by SPR using an SPR machine, such as a Biacore T200 instrument. The target protein was covalently coupled to a Biacore chip surface using free amine-coupling chemistry (NHS/EDC) and all uncoupled sites were blocked with ethanolamine. Free peptides were flowed over the target protein surface in increasing concentrations to measure association (Kₐ, 1/Ms⁻¹)) and dissociation (Kd, s⁻¹) to calculate the dissociation equilibrium constant (KD) using an appropriate binding model (see, e.g., Nikolas Stroth, J Biol Methods. 2016; 3 (1)).
# (§2) In FIGS. 1A, 1B, 2A, and 2B, lines on graphs are labeled from top to bottom, beginning with letter “a,” and the corresponding concentration is noted to the right of the figure.
# Murine Nectin-4 = target: T3, Murine Nectin-4; test: SPR, Biacore, 1:1 model, 25 C
# Experimental: as §1, §2
Binder,Kd [1] [nM],Kd (Human Nectin-4 [2]) [nM],Kd (Human Nectin-4 [3]) [nM],koff (Human Nectin-4 [3]) [s⁻¹],Kd (Murine Nectin-4) [nM],koff (Murine Nectin-4) [s⁻¹]
"{DOTA-PEG4″}-CEYDEEFFTALKRLRGGDICYYIKKKFKKVPKLCIEEILDKLGC-NH2 (designed binder, disulfide 1-34, 20-44; also: 177Lu-labelled in radioligand assay) [C82]",14.1,–,–,–,–,–
"Ac-CEYDEEFFAGLKRLRGGDICYYIKKKFDKVPDLCIEEILDKLGC-OH (designed binder, disulfide 1-34, 20-44) [C9]",–,7.5,7.5,0.0227,7.83,0.0213
"{DOTA-PEG4″}-CEYDEEFFAGLKRLRGGDICYYIKKKFDKVPDLCIEEILDKLGC-OH (designed binder, disulfide 1-34, 20-44) [C12]",–,10.5,–,0.017,2.94,0.0262
"{DOTA-PEG4″}-CEYDEEFFAGLKRLRGGDICYYIKKKFDKVPDLCIEEILDKLGC-OH (designed binder, disulfide 1-34, 20-44; also: 138La complex of DOTA) [C91]",–,–,17.9,0.0297,24.6,0.0282
